Reference: publication PMC10786891, “Massively parallel profiling of RNA-targeting CRISPR-Cas13d”
Residue numbers refer to the chain shown, from its start. In names and notes the source's numbering stands.

T1: EsCas13d, nuclease-dead (Eubacterium siraeum, UniProt B0MS50, R295A;H300A;R849A;H854A)
T1 sequence: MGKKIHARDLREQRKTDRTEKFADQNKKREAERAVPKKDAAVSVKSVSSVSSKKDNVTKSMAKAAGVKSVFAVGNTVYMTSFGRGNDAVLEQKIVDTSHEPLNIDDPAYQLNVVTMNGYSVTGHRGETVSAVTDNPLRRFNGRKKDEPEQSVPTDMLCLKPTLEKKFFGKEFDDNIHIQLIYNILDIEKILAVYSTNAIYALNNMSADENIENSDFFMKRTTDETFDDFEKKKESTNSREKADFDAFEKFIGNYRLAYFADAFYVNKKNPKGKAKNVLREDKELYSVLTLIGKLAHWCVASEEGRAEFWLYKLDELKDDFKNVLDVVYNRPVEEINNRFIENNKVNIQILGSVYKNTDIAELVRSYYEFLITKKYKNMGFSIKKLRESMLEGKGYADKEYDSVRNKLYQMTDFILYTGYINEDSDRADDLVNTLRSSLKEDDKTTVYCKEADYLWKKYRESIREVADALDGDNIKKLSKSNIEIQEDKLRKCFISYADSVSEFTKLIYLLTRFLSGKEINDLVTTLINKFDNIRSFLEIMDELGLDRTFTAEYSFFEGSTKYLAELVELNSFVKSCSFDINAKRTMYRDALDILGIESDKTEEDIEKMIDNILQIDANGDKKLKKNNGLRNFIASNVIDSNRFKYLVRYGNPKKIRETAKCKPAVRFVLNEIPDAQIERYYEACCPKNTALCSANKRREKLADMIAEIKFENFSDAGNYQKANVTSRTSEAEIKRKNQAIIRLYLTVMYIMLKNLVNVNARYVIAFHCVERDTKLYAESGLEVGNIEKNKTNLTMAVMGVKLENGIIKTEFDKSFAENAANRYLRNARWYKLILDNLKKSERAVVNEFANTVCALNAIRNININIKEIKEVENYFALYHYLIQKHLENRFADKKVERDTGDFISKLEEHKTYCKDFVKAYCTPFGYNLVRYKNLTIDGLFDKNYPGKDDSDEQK

B1: target 2 MT 5'PFS UCU 3'PFS CUU (mixed)
RNA 1: CACCCGUGCAAAAUUGCAGGGGUCUAAAACCUUCUCCAAAUUGUUUCAUCCU
RNA 2: GGGAAUGGAUCCACAUCUACGAAUUCUCUAGGAUGAAACAAUUUGGAGAAGCUUAGAUCGGAAGAGCACACGU
B2: target 2 MT 5'PFS CUG 3'PFS AAU (mixed)
RNA 1: B1 RNA 1
RNA 2: B1 RNA 2 with U27C, C28U, U29G, C52A, U53A
B3: target 2 MT 5'PFS AAG 3'PFS UUA (mixed)
RNA 1: B1 RNA 1
RNA 2: B1 RNA 2 with U27A, C28A, U29G, C52U, U54A
B4: target 2 MT 5'PFS CGC 3'PFS AAA (mixed)
RNA 1: B1 RNA 1
RNA 2: B1 RNA 2 with U27C, C28G, U29C, C52A, U53A, U54A
B5: target 2 MT 5'PFS CUG 3'PFS AAG (mixed)
RNA 1: B1 RNA 1
RNA 2: B1 RNA 2 with U27C, C28U, U29G, C52A, U53A, U54G
B6: target 2 MT 5'PFS CGC 3'PFS AAC (mixed)
RNA 1: B1 RNA 1
RNA 2: B1 RNA 2 with U27C, C28G, U29C, C52A, U53A, U54C
B7: target 1 G13U,A16C (mixed)
RNA 1: CACCCGUGCAAAAAUGCAGGGGUCUAAAACUGAGCGGAUAACCUCUCUAUGG
RNA 2: GGGAAUGGAUCCACAUCUACGAAUUCGUACCAUAGCGAUGUUAUCCGCUCACCGAGAUCGGAAGAGCACACGU
B8: target 2 MT 5'PFS GGC 3'PFS UAG (mixed)
RNA 1: B1 RNA 1
RNA 2: B1 RNA 2 with U27G, C28G, U29C, C52U, U53A, U54G
B9: target 2 MT 5'PFS CUG 3'PFS AAC (mixed)
RNA 1: B1 RNA 1
RNA 2: B1 RNA 2 with U27C, C28U, U29G, C52A, U53A, U54C
B10: target 2 MT 5'PFS CGC 3'PFS AAG (mixed)
RNA 1: B1 RNA 1
RNA 2: B1 RNA 2 with U27C, C28G, U29C, C52A, U53A, U54G
B11: target 2 MT 5'PFS CUG 3'PFS AAA (mixed)
RNA 1: B1 RNA 1
RNA 2: B1 RNA 2 with U27C, C28U, U29G, C52A, U53A, U54A
B12: target 2 MT 5'PFS AAA 3'PFS AUA (mixed)
RNA 1: B1 RNA 1
RNA 2: B1 RNA 2 with U27A, C28A, U29A, C52A, U54A
B13: target 2 MT 5'PFS AAC 3'PFS CUU (mixed)
RNA 1: B1 RNA 1
RNA 2: B1 RNA 2 with U27A, C28A, U29C
B14: target 2 MT 5'PFS GCG 3'PFS AAU (mixed)
RNA 1: B1 RNA 1
RNA 2: B1 RNA 2 with U27G, U29G, C52A, U53A
B15: target 2 MT 5'PFS UAC 3'PFS CAG (mixed)
RNA 1: B1 RNA 1
RNA 2: B1 RNA 2 with C28A, U29C, U53A, U54G
B16: target 2 MT 5'PFS UAC 3'PFS CAA (mixed)
RNA 1: B1 RNA 1
RNA 2: B1 RNA 2 with C28A, U29C, U53A, U54A
B17: target 2 MT 5'PFS UAC 3'PFS CAC (mixed)
RNA 1: B1 RNA 1
RNA 2: B1 RNA 2 with C28A, U29C, U53A, U54C
B18: target 1 insA 3' of 12,insA 3' of 4 (mixed)
RNA 1: B7 RNA 1
RNA 2: GGGAAUGGAUCCACAUCUACGAAUUCGUACCAUAGAGAGGAUUAUCCGCAUCACCGAGAUCGGAAGAGCACACGU
B19: target 1 C2A,C21U (mixed)
RNA 1: B7 RNA 1
RNA 2: B7 RNA 2 with C31U, C36A, U39G, C50A
B20: target 2 MT 5'PFS AAC 3'PFS CUG (mixed)
RNA 1: B1 RNA 1
RNA 2: B1 RNA 2 with U27A, C28A, U29C, U54G
B21: target 2 MT 5'PFS AAC 3'PFS CUC (mixed)
RNA 1: B1 RNA 1
RNA 2: B1 RNA 2 with U27A, C28A, U29C, U54C
B22: target 2 MT 5'PFS UAC 3'PFS CAU (mixed)
RNA 1: B1 RNA 1
RNA 2: B1 RNA 2 with C28A, U29C, U53A
B23: target 2 MT 5'PFS UCG 3'PFS CGA (mixed)
RNA 1: B1 RNA 1
RNA 2: B1 RNA 2 with U29G, U53G, U54A
B24: target 2 MT 5'PFS UCG 3'PFS CGC (mixed)
RNA 1: B1 RNA 1
RNA 2: B1 RNA 2 with U29G, U53G, U54C
B25: target 2 MT 5'PFS UCG 3'PFS CGG (mixed)
RNA 1: B1 RNA 1
RNA 2: B1 RNA 2 with U29G, U53G, U54G
B26: target 2 MT 5'PFS AUU 3'PFS CCG (mixed)
RNA 1: B1 RNA 1
RNA 2: B1 RNA 2 with U27A, C28U, U53C, U54G
B27: target 2 MT 5'PFS AUU 3'PFS CCA (mixed)
RNA 1: B1 RNA 1
RNA 2: B1 RNA 2 with U27A, C28U, U53C, U54A
B28: target 2 MT 5'PFS GUU 3'PFS CGC (mixed)
RNA 1: B1 RNA 1
RNA 2: B1 RNA 2 with U27G, C28U, U53G, U54C
B29: target 2 MT 5'PFS GGC 3'PFS UAU (mixed)
RNA 1: B1 RNA 1
RNA 2: B1 RNA 2 with U27G, C28G, U29C, C52U, U53A
B30: target 1 G12C,G15A (mixed)
RNA 1: B7 RNA 1
RNA 2: B7 RNA 2 with C36A, G37A, U39G, G40C
B31: target 2 MT 5'PFS GUU 3'PFS CGA (mixed)
RNA 1: B1 RNA 1
RNA 2: B1 RNA 2 with U27G, C28U, U53G, U54A
B32: target 2 MT 5'PFS GUU 3'PFS CGG (mixed)
RNA 1: B1 RNA 1
RNA 2: B1 RNA 2 with U27G, C28U, U53G, U54G
B33: target 2 MT 5'PFS AAC 3'PFS AAC (mixed)
RNA 1: B1 RNA 1
RNA 2: B1 RNA 2 with U27A, C28A, U29C, C52A, U53A, U54C
B34: target 2 MT 5'PFS AAA 3'PFS ACG (mixed)
RNA 1: B1 RNA 1
RNA 2: B1 RNA 2 with U27A, C28A, U29A, C52A, U53C, U54G
B35: target 2 MT 5'PFS UCA 3'PFS UCC (mixed)
RNA 1: B1 RNA 1
RNA 2: B1 RNA 2 with U29A, C52U, U53C, U54C
B36: target 2 MT 5'PFS AUC 3'PFS AUG (mixed)
RNA 1: B1 RNA 1
RNA 2: B1 RNA 2 with U27A, C28U, U29C, C52A, U54G
B37: target 2 MT 5'PFS AAA 3'PFS ACU (mixed)
RNA 1: B1 RNA 1
RNA 2: B1 RNA 2 with U27A, C28A, U29A, C52A, U53C
B38: target 2 MT 5'PFS GUU 3'PFS CGU (mixed)
RNA 1: B1 RNA 1
RNA 2: B1 RNA 2 with U27G, C28U, U53G

Each binder was assayed against T1, EsCas13d, nuclease-dead (assay: crRNA (strand 1, pre-loaded); Mg2+; 40 mM Tris-HCl pH 7.5, 150 mM NaCl, 6 mM MgCl2, 1 mM DTT, 0.1% Tween-20, 0.2 mg/ml BSA; 25 C; 10 min per concentration, then washed). Details: tags: His6-TwinStrep-SUMO cleaved; N-terminal SNAP kept (SNAP-Surface 488); label: 3' end held by stalled T7 RNA polymerase.

Going from B1 to B2, the Kd falls from 14.1 ± 2.5 nM to 3.6 ± 0.5 nM (3.9-fold). The second binds more tightly here.

B3 and B4 are within error of each other in Kd: 6.8 ± 1.3 nM for the first, 5.8 ± 1.6 nM for the second.

Compared with B5, B6 is 1.6-fold higher in Kd: 3 ± 0.4 nM for the first, 4.9 ± 0.5 nM for the second.

Compared with B7, B8 is 5.2-fold lower in Kd: 68 ± 14 nM for the first, 13.1 ± 2 nM for the second.

B9 and B10 are within error of each other in Kd: 3.4 ± 0.4 nM for the first, 4 ± 0.6 nM for the second.

Compared with B11, B12 is 1.5-fold higher in Kd: 2.9 ± 0.32 nM for the first, 4.4 ± 1 nM for the second. The first binds more tightly here.

B13 and B14 are within error of each other in Kd: 9.1 ± 2.7 nM for the first, 8.4 ± 1.3 nM for the second.

B15 and B16 are within error of each other in Kd: 8.5 ± 3 nM for the first, 6 ± 1.1 nM for the second.

First: B17
Second: B18
The Kd of the first is 3.6-fold lower: 5.3 ± 1 nM for the first, 19.2 ± 1.2 nM for the second. The first binds more tightly here.

B19 and B20 are within error of each other in Kd: 8.2 ± 0.5 nM for the first, 7.3 ± 1.3 nM for the second.

B21 and B22 are within error of each other in Kd: 9 ± 3 nM for the first, 10 ± 2.3 nM for the second.

B23 and B24 are within error of each other in Kd: 33 ± 15 nM for the first, 30 ± 6 nM for the second.

First: B25
Second: B26
The Kd of the first is 5.6-fold higher: 55 ± 16 nM for the first, 9.8 ± 1.1 nM for the second. The second binds more tightly here.

B27 and B28 are within error of each other in Kd: 14.8 ± 2.7 nM for the first, 11.4 ± 0.7 nM for the second.

Compared with B29, B30 is 4-fold higher in Kd: 12.4 ± 1.5 nM for the first, 50 ± 16 nM for the second.

B31 and B32 are within error of each other in Kd: 15.2 ± 1.5 nM for the first, 17 ± 1.6 nM for the second.

First: B33
Second: B34
The Kd of the first is 2-fold higher: 8.8 ± 3.5 nM for the first, 4.4 ± 0.5 nM for the second.

First: B35
Second: B36
The Kd of the first is 12-fold lower: 5.7 ± 0.8 nM for the first, about 70 nM for the second.

B37 and B38 are within error of each other in Kd: 9.5 ± 2.9 nM for the first, 12.9 ± 0.9 nM for the second.
